Results on 1 molecule are retold here after publication PMC4429956.

Assay [1] addresses fluorescent H3K4me3 peptide. Kind of assay: fluorescence polarisation; increasing concentrations of TAF3 PHD finger with fluorescent H3K4me3 peptide, no PI; apparent KD. For orientation: Polarisation of emitted light reports the rotation of a fluorescent probe.
Assay [2] addresses fluorescent H3K4me3 peptide. Kind of assay: fluorescence polarisation; increasing concentrations of TAF3 PHD finger with fluorescent H3K4me3 peptide, with a 5-fold molar excess of PI5P; apparent KD.

B1: GST-TAF3 PHD finger, wild type (domain or fragment)
chain: IWICPGCNKPDDGSPMIGCDDCDDWYHWPCVGIMTAPPEEMQWFCPKCANKKKDKKHKKRKHRAH
modifications: not checked
B1: the figures for the Kd in assay [1] and in assay [2] were 1000 nM and 3500 nM, respectively.
